Reference: article PMC2114503
Read-outs that look alike come from different tables or passages of the source.

Legend:
Experiment in all cases: co-sedimentation
[1] = molecular target: rabbit skeletal muscle actin (rabbit) (UniProt P68135)
[2] = molecular target: rabbit skeletal muscle actin (rabbit) (UniProt P68135); remark: listed apart in the source
[3] = molecular target: rabbit skeletal muscle actin (rabbit) (UniProt P68135); conditions: scale: molecules of actin per molecule of the 30,000-D protein
[4] = molecular target: rabbit skeletal muscle actin (rabbit) (UniProt P68135); remark: listed apart in the source
[5] = molecular target: rabbit skeletal muscle actin (rabbit) (UniProt P68135); remark: listed apart in the source

Substance “Dictyostelium discoideum 30,000-D actin-binding protein (natural protein)” has a fraction of the 30,000-D protein co-sedimenting with actin [1] of 29%, a fraction of the 30,000-D protein co-sedimenting with actin [2] of 99% and a stoichiometry N ([2]; scale: molecules of actin per molecule of the 30,000-D protein) of 9.5. It also gave a stoichiometry N [3] of 10.3, a fraction of the 30,000-D protein co-sedimenting with actin [4] of 14% and a fraction of the 30,000-D protein co-sedimenting with actin [5] of 73%.
